Measurements taken from patent publication US20240083958A1, “G PROTEIN PEPTIDOMIMETICS” (VRIJE UNIVERSITEIT BRUSSEL, priority 2020, published 2024).
Like-named read-outs stand apart in the source and are kept apart here. One block for each molecule: values may come before it. Bridge positions count the residues as written; N and C are the ends. Square brackets hold non-standard residues; d marks the D form. Primed or numbered codes have the meaning given here. Azk = residue with azidated side chain, clicked to Pra; Pra′ = residue with alkynyl side chain, clicked to Azk; Lys(N3) = [N-]=[N+]=NCCCC[C@H](N)C(=O)O; R8 = C=CCCCCCC[C@@](C)(N)C(=O)O; Cha = N[C@@H](CC1CCCCC1)C(=O)O; R5 = C=CCCC[C@@](C)(N)C(=O)O; S5 = C=CCCC[C@](C)(N)C(=O)O; Pra = C#CC[C@H](N)C(=O)O

Key:
[1] = target: dopamine 1 receptor (D1R) (Homo sapiens, UniProt P21728); assay: GPCR-radioligand binding assay (RLA) with dopamine 1 receptor (D1R), [3H]-SCH23390 as radiolabelled antagonist, A-77636 (agonist), in presence and absence of the peptidomimetic; conditions: Table 19; peptidomimetic at 10 μM; ratio IC50 D1R alone / IC50 D1R + peptidomimetic
Description: For the radioligand assays on D1R a similar buffer, as for β2AR, was used for the ligands, membrane extracts and peptides (+1% DMSO). The competition assay was performed with [^3H]-SCH23390 as radiolabelled antagonist, at a concentration of 2 nM. A ten-fold dilution series of the agonist, A-77636, was prepared to obtain a dose response curve, starting from 100 μM for the receptor alone and 10 μM in the presence of the peptidomimetics. After incubation, the samples were harvested into filter plates, pre-soaked with 0.5% polyethylenimine (PEI), and washed with ice cold washing buffer using the 96-well harvester. After drying in the oven during 1 h and the addition of scintillation liquid, the plates were placed in the MICROBETA® scintillation counter and incubated for 30 min in the dark before reading.
After the Microbeta scintillation counter, the experimental data was further analyzed using Graphpad Prism 6.0. After normalization of the raw data, a nonlinear regression was used to fit the data in a one-site binding model, with the total binding set as 100% and the non-specific binding between 0 and 5%. The IC50 values, obtained from the competition curves, were used to determine the shift for each peptide, which is the ratio of IC50 of the agonist test compound on the basal conformation (e.g. IC50 β2AR with no peptidomimetic) versus the active conformation (e.g. IC50 β2AR+peptidomimetic) of the receptor. For certain peptide analogues, a biphasic binding curve was observed and therefore fitted by a two-site model (nonlinear regression), resulting in two IC50 values (IC50Hi and IC50Lo) and a FractionHi, the fraction of receptors in the active state.
Peptidomimetics were screened using GPCR-radioligand binding assay (RLA) with dopamine 1 receptor (D1R) binding, using [^3H]-SCH23390 as radiolabelled antagonist, and increasing concentrations of A-77636 (agonist). The half maximal inhibitory concentration (IC50) represents the affinity of the agonist for the receptor. The selectivity is quantified by the shift. “[ ]” denotes cyclic peptides.

[2] = target: T1, human β2AR (human, UniProt P07550 2-365); assay: cell-based or functional assay
[3] = target: T1, human β2AR; assay: cell-based or functional assay; remark: listed apart in the source
[4] = target: T1, human β2AR; assay: cell-based or functional assay; remark: listed apart in the source
[5] = target: T1, human β2AR; assay: cell-based or functional assay; remark: listed apart in the source
[6] = target: T1, human β2AR; assay: cell-based or functional assay; remark: listed apart in the source
[7] = target: T1, human β2AR; assay: cell-based or functional assay; remark: listed apart in the source
[8] = target: T1, human β2AR; assay: cell-based or functional assay; remark: listed apart in the source
[9] = target: dopamine 1 receptor (D1R) (UniProt P21728 1-446, limits assumed); assay: cell-based or functional assay
[10] = target: T1, human β2AR; assay: cell-based or functional assay; remark: listed apart in the source
[11] = target: T1, human β2AR; assay: cell-based or functional assay; remark: listed apart in the source
[12] = target: T1, human β2AR; assay: cell-based or functional assay; remark: listed apart in the source
[13] = target: T1, human β2AR; assay: cell-based or functional assay; remark: listed apart in the source

dopamine 1 receptor (D1R) (UniProt P21728 1-446, limits assumed), sequence (P21728 whole entry): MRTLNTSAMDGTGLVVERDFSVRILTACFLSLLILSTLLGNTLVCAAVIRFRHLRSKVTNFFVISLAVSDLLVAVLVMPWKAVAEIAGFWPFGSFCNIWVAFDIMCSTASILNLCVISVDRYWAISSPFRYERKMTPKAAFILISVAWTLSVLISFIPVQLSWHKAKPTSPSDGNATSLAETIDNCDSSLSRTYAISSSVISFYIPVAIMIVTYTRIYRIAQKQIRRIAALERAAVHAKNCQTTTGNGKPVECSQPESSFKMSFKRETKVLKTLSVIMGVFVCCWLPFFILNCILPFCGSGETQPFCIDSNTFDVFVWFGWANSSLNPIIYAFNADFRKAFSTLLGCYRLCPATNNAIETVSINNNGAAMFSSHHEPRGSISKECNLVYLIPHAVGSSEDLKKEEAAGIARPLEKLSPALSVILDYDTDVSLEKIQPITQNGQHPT
dopamine 1 receptor (D1R) (Homo sapiens, UniProt P21728), sequence (P21728 whole entry): as above

Molecule: Ac-FNDCRDIIQRMHLRQYEChaL-OH (FNDCRDIIQRMHLRQYEXL; HELM PEPTIDE1{[ac].F.N.D.C.R.D.I.I.Q.R.M.H.L.R.Q.Y.E.[Cha].L}$$$$V2.0; SMILES CC[C@H](C)[C@H](NC(=O)[C@H](CC(=O)O)NC(=O)[C@H](CCCNC(=N)N)NC(=O)[C@H](CS)NC(=O)[C@H](CC(=O)O)NC(=O)[C@H](CC(N)=O)NC(=O)[C@H](Cc1ccccc1)NC(C)=O)C(=O)N[C@H](C(=O)N[C@@H](CCC(N)=O)C(=O)N[C@@H](CCCNC(=N)N)C(=O)N[C@@H](CCSC)C(=O)N[C@@H](Cc1c[nH]cn1)C(=O)N[C@@H](CC(C)C)C(=O)N[C@@H](CCCNC(=N)N)C(=O)N[C@@H](CCC(N)=O)C(=O)N[C@@H](Cc1ccc(O)cc1)C(=O)N[C@@H](CCC(=O)O)C(=O)N[C@@H](CC1CCCCC1)C(=O)N[C@@H](CC(C)C)C(=O)O)[C@@H](C)CC) [compound 63]
Shift [1]: 24

Shift [1]: 32
Molecule: Ac-KKKFN[PraCRDAzk]IQRMHLRQYELL-OH (Ac-KKKFN[Pra]CRD[Lys(N3)]IQRMHLRQYELL-OH; triazole 6-10) [compound 42]

IC50 (nM) of isoproterenol, [3H]-DHA RLA, peptidomimetic present [2]: 312 nM
Shift [2]: 3
Shift (averaged) [3]: 3
B1: compound 13 (peptide)
peptide: Ac-FNDCRDIIQR[R5]HL[S5]QYELL-OH
modifications: staple 11-14
SMILES: CC[C@H](C)[C@H](NC(=O)[C@H](CC(=O)O)NC(=O)[C@H](CCCNC(=N)N)NC(=O)[C@H](CS)NC(=O)[C@H](CC(=O)O)NC(=O)[C@H](CC(N)=O)NC(=O)[C@H](Cc1ccccc1)NC(C)=O)C(=O)N[C@H](C(=O)N[C@@H](CCC(N)=O)C(=O)N[C@@H](CCCNC(=N)N)C(=O)N[C@]1(C)CCCC=CCCC[C@@](C)(C(=O)N[C@@H](CCC(N)=O)C(=O)N[C@@H](Cc2ccc(O)cc2)C(=O)N[C@@H](CCC(=O)O)C(=O)N[C@@H](CC(C)C)C(=O)N[C@@H](CC(C)C)C(=O)O)NC(=O)[C@H](CC(C)C)NC(=O)[C@H](Cc2c[nH]cn2)NC1=O)[C@@H](C)CC

IC50 (nM) of isoproterenol, [3H]-DHA RLA, peptidomimetic present [4]: 122 nM
Shift [4]: 7
Shift (averaged) [3]: 7
Molecule: H-FNDCRD[Pra′]IQR[Azk]HLRQYELL-OH (triazole 7-11) [compound 10]

IC50 (nM) of isoproterenol, [3H]-DHA RLA, peptidomimetic present [4]: 211 nM
Shift [4]: 4
Shift (averaged) [3]: 4
B2: compound 9 (peptide)
peptide: FNDCRDXIQRXHLRQYELL
HELM: PEPTIDE1{[ac].F.N.D.C.R.D.[C#CC[C@H](N[*:1])C(=O)[*:2]].I.Q.R.[[N-]=[N+]=NCCCC[C@H](N[*:1])C(=O)[*:2]].H.L.R.Q.Y.E.L.L}$$$$V2.0
SMILES: C#CC[C@H](NC(=O)[C@H](CC(=O)O)NC(=O)[C@H](CCCNC(=N)N)NC(=O)[C@H](CS)NC(=O)[C@H](CC(=O)O)NC(=O)[C@H](CC(N)=O)NC(=O)[C@H](Cc1ccccc1)NC(C)=O)C(=O)N[C@H](C(=O)N[C@@H](CCC(N)=O)C(=O)N[C@@H](CCCNC(=N)N)C(=O)N[C@@H](CCCCN=[N+]=[N-])C(=O)N[C@@H](Cc1c[nH]cn1)C(=O)N[C@@H](CC(C)C)C(=O)N[C@@H](CCCNC(=N)N)C(=O)N[C@@H](CCC(N)=O)C(=O)N[C@@H](Cc1ccc(O)cc1)C(=O)N[C@@H](CCC(=O)O)C(=O)N[C@@H](CC(C)C)C(=O)N[C@@H](CC(C)C)C(=O)O)[C@@H](C)CC

IC50 (nM) of isoproterenol, [3H]-DHA RLA, peptidomimetic present [5]: 417 nM
Shift [5]: 2
Shift (averaged) [3]: 2
B3: compound 7 (peptide)
peptide: H-FNDCRD[S5]IQR[S5]HLRQYELL-OH
modifications: staple 7-11
SMILES: CC[C@H](C)[C@@H]1NC(=O)[C@@](C)(NC(=O)[C@H](CC(=O)O)NC(=O)[C@H](CCCNC(=N)N)NC(=O)[C@H](CS)NC(=O)[C@H](CC(=O)O)NC(=O)[C@H](CC(N)=O)NC(=O)[C@@H](N)Cc2ccccc2)CCCC=CCCC[C@@](C)(C(=O)N[C@@H](Cc2c[nH]cn2)C(=O)N[C@@H](CC(C)C)C(=O)N[C@@H](CCCNC(=N)N)C(=O)N[C@@H](CCC(N)=O)C(=O)N[C@@H](Cc2ccc(O)cc2)C(=O)N[C@@H](CCC(=O)O)C(=O)N[C@@H](CC(C)C)C(=O)N[C@@H](CC(C)C)C(=O)O)NC(=O)[C@H](CCCNC(=N)N)NC(=O)[C@H](CCC(N)=O)NC1=O

IC50 (nM) of isoproterenol, [3H]-DHA RLA, peptidomimetic present [4]: 116 nM
Shift [4]: 7
Shift (averaged) [3]: 7
Molecule: Ac-FNDCRD[Pra′]IQR[Azk]HLRQYELL-OH (triazole 7-11) [compound 11]

IC50 (nM) of isoproterenol, [3H]-DHA RLA, peptidomimetic present [5]: 373 nM
Shift [5]: 2
Shift (averaged) [3]: 3
Molecule: Ac-FNDCRD[S5]IQR[S5]HLRQYELL-OH (staple 7-11) [compound 8]

IC50 (nM) of isoproterenol, [3H]-DHA RLA, peptidomimetic present [2]: 433 nM
Shift [2]: 2
Shift (averaged) [3]: 2
B4: compound 14 (peptide)
peptide: Ac-FNDCRD[R8]IQRMHL[S5]QYELL-OH
modifications: staple 7-14
SMILES: CC[C@H](C)[C@@H]1NC(=O)[C@](C)(NC(=O)[C@H](CC(=O)O)NC(=O)[C@H](CCCNC(=N)N)NC(=O)[C@H](CS)NC(=O)[C@H](CC(=O)O)NC(=O)[C@H](CC(N)=O)NC(=O)[C@H](Cc2ccccc2)NC(C)=O)CCCCCCC=CCCC[C@@](C)(C(=O)N[C@@H](CCC(N)=O)C(=O)N[C@@H](Cc2ccc(O)cc2)C(=O)N[C@@H](CCC(=O)O)C(=O)N[C@@H](CC(C)C)C(=O)N[C@@H](CC(C)C)C(=O)O)NC(=O)[C@H](CC(C)C)NC(=O)[C@H](Cc2c[nH]cn2)NC(=O)[C@H](CCSC)NC(=O)[C@H](CCCNC(=N)N)NC(=O)[C@H](CCC(N)=O)NC1=O

IC50 (nM) of isoproterenol, [3H]-DHA RLA, compound 51 at 1 µM [6]: 56.4 nM
IC50 (nM) of isoproterenol, [3H]-DHA RLA, compound 51 at 10 µM [6]: 6.7 nM
IC50 (nM) of isoproterenol, [3H]-DHA RLA, compound 51 at 50 µM [6]: 6.9 nM
IC50 (nM) of isoproterenol, [3H]-DHA RLA, compound 51 at 100 µM [6]: 3.4 nM
Fraction HI (%) [7]: 83%
IC50 (nM) of isoproterenol, [3H]-DHA RLA, peptidomimetic present [7]: 2.8 nM
Shift [7]: 580
Shift (averaged) [8]: 400
IC50 (nM) of A-77636, [3H]-SCH23390 RLA, compound 51 at 10 µM [9]: 0.25 nM
Molecule: Ac-KKKFN[Pra′]CRD[Azk]IQRMHLRQYE[Cha]L-OH (triazole 6-10) [compound 51]

IC50 (nM) of isoproterenol, [3H]-DHA RLA, peptidomimetic present [10]: 6.88 nM
Shift [10]: 118
Fraction HI (%) [11]: 81%
IC50 (nM) of isoproterenol, [3H]-DHA RLA, peptidomimetic present [11]: 7.3 nM
Shift [11]: 217
IC50 (nM) of isoproterenol, [3H]-DHA RLA, peptidomimetic present [12]: 3.96 nM
Shift [12]: 198
Shift (averaged) [8]: 203
IC50 (nM) of A-77636, [3H]-SCH23390 RLA, compound 63 at 10 µM [9]: 0.55 nM
B5: compound 63 (peptide)
peptide: FNDCRDIIQRMHLRQYEXL
HELM: PEPTIDE1{[ac].F.N.D.C.R.D.I.I.Q.R.M.H.L.R.Q.Y.E.[Cha].L}$$$$V2.0
SMILES: CC[C@H](C)[C@H](NC(=O)[C@H](CC(=O)O)NC(=O)[C@H](CCCNC(=N)N)NC(=O)[C@H](CS)NC(=O)[C@H](CC(=O)O)NC(=O)[C@H](CC(N)=O)NC(=O)[C@H](Cc1ccccc1)NC(C)=O)C(=O)N[C@H](C(=O)N[C@@H](CCC(N)=O)C(=O)N[C@@H](CCCNC(=N)N)C(=O)N[C@@H](CCSC)C(=O)N[C@@H](Cc1c[nH]cn1)C(=O)N[C@@H](CC(C)C)C(=O)N[C@@H](CCCNC(=N)N)C(=O)N[C@@H](CCC(N)=O)C(=O)N[C@@H](Cc1ccc(O)cc1)C(=O)N[C@@H](CCC(=O)O)C(=O)N[C@@H](CC1CCCCC1)C(=O)N[C@@H](CC(C)C)C(=O)O)[C@@H](C)CC

IC50 (nM) of isoproterenol, [3H]-DHA RLA, peptidomimetic present [13]: 27.4 nM
Shift [13]: 42
Shift (averaged) [8]: 49
IC50 (nM) of A-77636, [3H]-SCH23390 RLA, compound 42 at 10 µM [9]: 0.41 nM
Molecule: Ac-KKKFN[Pra′]CRD[Azk]IQRMHLRQYELL-OH (triazole 6-10) [compound 42]
